Read-outs that look alike come from different tables or passages of the source.
T1: Brr2^C-Sec63 (human, UniProt O75643 1840-2136)
T1 sequence (looked up): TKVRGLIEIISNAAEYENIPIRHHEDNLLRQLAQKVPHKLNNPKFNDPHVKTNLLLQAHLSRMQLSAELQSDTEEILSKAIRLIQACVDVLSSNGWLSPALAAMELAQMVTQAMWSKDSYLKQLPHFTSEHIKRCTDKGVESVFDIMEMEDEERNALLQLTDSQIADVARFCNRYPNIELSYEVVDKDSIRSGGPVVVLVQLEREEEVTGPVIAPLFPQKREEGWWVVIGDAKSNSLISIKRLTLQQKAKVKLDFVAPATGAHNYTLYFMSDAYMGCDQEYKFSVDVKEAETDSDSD

T2: Brr2^C-Sec63 pre-incubated with FBP21^116–376 (human | , UniProt O75643 1840-2136; O75554 116-376)
T2 sequence (looked up) 1: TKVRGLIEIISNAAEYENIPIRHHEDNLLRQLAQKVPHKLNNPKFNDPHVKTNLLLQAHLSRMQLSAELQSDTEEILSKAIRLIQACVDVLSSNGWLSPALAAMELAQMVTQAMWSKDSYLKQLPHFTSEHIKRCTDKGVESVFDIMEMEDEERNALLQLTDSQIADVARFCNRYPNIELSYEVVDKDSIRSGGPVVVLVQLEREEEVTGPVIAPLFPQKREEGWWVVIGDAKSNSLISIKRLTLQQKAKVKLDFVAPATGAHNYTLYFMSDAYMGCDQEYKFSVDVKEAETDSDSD
T2 sequence (looked up) 2: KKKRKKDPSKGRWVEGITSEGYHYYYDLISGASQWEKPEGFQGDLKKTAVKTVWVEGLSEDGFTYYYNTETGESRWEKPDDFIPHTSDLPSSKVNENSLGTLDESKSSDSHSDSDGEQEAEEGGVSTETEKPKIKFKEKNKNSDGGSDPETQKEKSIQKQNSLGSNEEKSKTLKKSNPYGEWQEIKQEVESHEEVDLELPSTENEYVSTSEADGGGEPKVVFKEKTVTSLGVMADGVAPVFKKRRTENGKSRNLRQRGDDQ

B1: FBP21^116–376 (domain or fragment, UniProt O75554 116-376, looked up)
chain: KKKRKKDPSKGRWVEGITSEGYHYYYDLISGASQWEKPEGFQGDLKKTAVKTVWVEGLSEDGFTYYYNTETGESRWEKPDDFIPHTSDLPSSKVNENSLGTLDESKSSDSHSDSDGEQEAEEGGVSTETEKPKIKFKEKNKNSDGGSDPETQKEKSIQKQNSLGSNEEKSKTLKKSNPYGEWQEIKQEVESHEEVDLELPSTENEYVSTSEADGGGEPKVVFKEKTVTSLGVMADGVAPVFKKRRTENGKSRNLRQRGDDQ

What was measured:
Test in all cases: ITC
Brr2^C-Sec63 [1] = molecular target: T1, Brr2^C-Sec63
Brr2^C-Sec63 [2] = molecular target: T1, Brr2^C-Sec63; remark: listed apart in the source
[3] = molecular target: T2, Brr2^C-Sec63 pre-incubated with …
FBP21^116–376 = molecular target: B1
Brr2^C-Sec63 [4] = molecular target: T1, Brr2^C-Sec63; remark: listed apart in the source

Kd (Brr2^C-Sec63 [1]) [µM] | Binder | also measured
27.3 ± 3.01 | KRFKR [positively charged control peptide KRFKR] | 
27.5 | GVMADGVAPVFKKRRTENGK [peptide 57] | stoichiometry N (Brr2^C-Sec63 [1]): 1
0.275 ± 0.106 | B1 | 
 | FBP21^116–376 pre-incubated with SmB peptide (complex) KKKRKKDPSKGRWVEGITSEGYHYYYDLISGASQWEKPEGFQGDLKKTAVKTVWVEGLSEDGFTYYYNTETGESRWEKPDDFIPHTSDLPSSKVNENSLGTLDESKSSDSHSDSDGEQEAEEGGVSTETEKPKIKFKEKNKNSDGGSDPETQKEKSIQKQNSLGSNEEKSKTLKKSNPYGEWQEIKQEVESHEEVDLELPSTENEYVSTSEADGGGEPKVVFKEKTVTSLGVMADGVAPVFKKRRTENGKSRNLRQRGDDQ peptide: GTPMGMPPPGMRPPPPGMRGLL | Kd (Brr2^C-Sec63 [2]): 0.194 ± 0.014 µM
0.125 | FBP21^200–376 (domain or fragment, UniProt O75554 200-376, looked up) HTSDLPSSKVNENSLGTLDESKSSDSHSDSDGEQEAEEGGVSTETEKPKIKFKEKNKNSDGGSDPETQKEKSIQKQNSLGSNEEKSKTLKKSNPYGEWQEIKQEVESHEEVDLELPSTENEYVSTSEADGGGEPKVVFKEKTVTSLGVMADGVAPVFKKRRTENGKSRNLRQRGDDQ | stoichiometry N (Brr2^C-Sec63 [1]): 1
27.8 ± 0.9 | FBP21^200–376 K357E/R359E (domain or fragment, UniProt O75554 200-376, looked up) HTSDLPSSKVNENSLGTLDESKSSDSHSDSDGEQEAEEGGVSTETEKPKIKFKEKNKNSDGGSDPETQKEKSIQKQNSLGSNEEKSKTLKKSNPYGEWQEIKQEVESHEEVDLELPSTENEYVSTSEADGGGEPKVVFKEKTVTSLGVMADGVAPVFEKERTENGKSRNLRQRGDDQ | 
2.04 ± 0.37 | FBP21^200–376 K358A/R360A (domain or fragment, UniProt O75554 200-376, looked up) HTSDLPSSKVNENSLGTLDESKSSDSHSDSDGEQEAEEGGVSTETEKPKIKFKEKNKNSDGGSDPETQKEKSIQKQNSLGSNEEKSKTLKKSNPYGEWQEIKQEVESHEEVDLELPSTENEYVSTSEADGGGEPKVVFKEKTVTSLGVMADGVAPVFKARATENGKSRNLRQRGDDQ | 
0.298 | FBP21^276–376 (domain or fragment, UniProt O75554 276-376, looked up) NSLGSNEEKSKTLKKSNPYGEWQEIKQEVESHEEVDLELPSTENEYVSTSEADGGGEPKVVFKEKTVTSLGVMADGVAPVFKKRRTENGKSRNLRQRGDDQ | stoichiometry N (Brr2^C-Sec63 [1]): 1
0.11 | FBP21^326–376 (domain or fragment, UniProt O75554 326-376, looked up) EADGGGEPKVVFKEKTVTSLGVMADGVAPVFKKRRTENGKSRNLRQRGDDQ | 
20 ± 1.1 | FKKRR [core binding motif of peptide 57, ^356FKKRR^360] | 
37 ± 5.99 | GKKRR [positively charged control peptide GKKRR] | 
 | GTPMGMPPPGMRPPPPGMRGLL [SmB-derived peptide] | Kd [3]: 14 ± 0.8 µM; Kd (FBP21^116–376): 16.8 ± 3 µM
 | GVAPVFKKRRTENGKSRNLR [peptide 58] | Kd (Brr2^C-Sec63 [4]): 1.34 ± 0.19 µM
